Laboratory results as given in IntAct's records for PubMed 30488537.

B1: Prelamin-A/C (Homo sapiens), P02545 (parent)
chain: METPSQRRATRSGAQASSTPLSPTRITRLQEKEDLQELNDRLAVYIDRVRSLETENAGLRLRITESEEVVSREVSGIKAAYEAELGDARKTLDSVAKERARLQLELSKVREEFKELKARNTKKEGDLIAAQARLKDLEALLNSKEAALSTALSEKRTLEGELHDLRGQVAKLEAALGEAKKQLQDEMLRRVDAENRLQTMKEELDFQKNIYSEELRETKRRHETRLVEIDNGKQREFESRLADALQELRAQHEDQVEQYKKELEKTYSAKLDNARQSAERNSNLVGAAHEELQQSRIRIDSLSAQLSQLQKQLAAKEAKLRDLEDSLARERDTSRRLLAEKEREMAEMRARMQQQLDEYQELLDIKLALDMEIHAYRKLLEGEEERLRLSPSPTSQRSRGRASSHSSQTQGGGSVTKKRKLESTESRSSFSQHARTSGRVAVEEVDEEGKFVRLRNKSNEDQSMGNWQIKRQNGDDPLLTYRFPPKFTLKAGQVVTIWAAGAGATHSPPTDLVWKAQNTWGCGNSLRTALINSTGEEVAMRKLVRSVTVVEDDEDEDGDDLLHHHHGSHCSSSGDPAEYNLRSRTVLCGTCGQPADKASASGSGAQVGGPISSGSSASSVTVTRSYRSVGGSGGGSFGDNLVTRSYLLGNSSPRTQSPQNCSIM
partner: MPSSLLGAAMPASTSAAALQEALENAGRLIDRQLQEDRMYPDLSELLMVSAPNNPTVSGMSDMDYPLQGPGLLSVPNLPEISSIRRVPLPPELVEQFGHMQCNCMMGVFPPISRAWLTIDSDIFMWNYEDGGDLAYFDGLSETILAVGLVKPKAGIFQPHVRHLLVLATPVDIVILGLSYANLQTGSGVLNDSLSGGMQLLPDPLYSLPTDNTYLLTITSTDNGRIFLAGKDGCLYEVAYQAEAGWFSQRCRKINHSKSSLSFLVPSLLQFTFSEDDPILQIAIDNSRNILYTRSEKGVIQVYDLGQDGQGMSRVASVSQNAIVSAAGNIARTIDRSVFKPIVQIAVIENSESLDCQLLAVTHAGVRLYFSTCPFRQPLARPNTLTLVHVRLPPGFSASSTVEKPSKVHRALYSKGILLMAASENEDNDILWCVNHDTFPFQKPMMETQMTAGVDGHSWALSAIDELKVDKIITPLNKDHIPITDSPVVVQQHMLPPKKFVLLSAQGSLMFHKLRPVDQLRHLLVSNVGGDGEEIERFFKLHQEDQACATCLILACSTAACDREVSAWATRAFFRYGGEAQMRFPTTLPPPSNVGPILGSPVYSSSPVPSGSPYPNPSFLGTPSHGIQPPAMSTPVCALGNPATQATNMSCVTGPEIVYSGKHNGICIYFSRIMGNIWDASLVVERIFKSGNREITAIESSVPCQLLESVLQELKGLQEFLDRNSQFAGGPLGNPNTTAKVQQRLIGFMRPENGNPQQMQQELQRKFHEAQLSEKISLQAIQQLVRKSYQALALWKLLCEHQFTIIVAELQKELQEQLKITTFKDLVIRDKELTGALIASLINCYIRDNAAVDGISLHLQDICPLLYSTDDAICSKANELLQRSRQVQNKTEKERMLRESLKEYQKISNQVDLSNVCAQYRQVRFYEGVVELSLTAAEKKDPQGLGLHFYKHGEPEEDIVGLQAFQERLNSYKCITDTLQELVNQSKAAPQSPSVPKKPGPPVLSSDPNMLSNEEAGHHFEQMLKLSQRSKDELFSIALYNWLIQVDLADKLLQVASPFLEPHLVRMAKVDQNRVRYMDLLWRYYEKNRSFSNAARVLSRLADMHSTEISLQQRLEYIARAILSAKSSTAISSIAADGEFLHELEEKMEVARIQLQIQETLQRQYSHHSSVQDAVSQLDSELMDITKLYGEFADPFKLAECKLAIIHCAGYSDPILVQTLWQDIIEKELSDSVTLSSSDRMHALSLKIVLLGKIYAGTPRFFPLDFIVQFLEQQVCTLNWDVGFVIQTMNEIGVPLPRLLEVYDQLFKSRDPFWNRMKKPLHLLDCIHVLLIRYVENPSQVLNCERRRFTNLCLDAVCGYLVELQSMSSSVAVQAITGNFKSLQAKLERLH

Variants of: B1
Settings: with nu155_human NUP155, O75694

| Variant | effect of a mutation on the interaction |
| --- | --- |
| R399C | decreasing interaction strength |

Variants of: B1
Settings: with nu155_human NUP155, O75694
Remark: another data set of the same source

| Variant | effect of a mutation on the interaction |
| --- | --- |
| R399C | with no effect |
